According to publication PMC9482650, “Quantitative fragmentomics allow affinity mapping of interactomes” (Nature Communications, 2022):

Columns and labels:
Experiment in all cases: holdup assay
Set-up in all cases: key: below the threshold = too weak to quantify, mostly under pKd 3.1 to 4
APBA1_1, Q02410 = biological target: T1, APBA1_1, Q02410
T1 sequence (Q02410 651-752, limits assumed, looked up): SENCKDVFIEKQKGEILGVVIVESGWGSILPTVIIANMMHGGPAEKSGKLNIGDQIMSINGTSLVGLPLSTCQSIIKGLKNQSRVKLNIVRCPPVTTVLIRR

ARHGEF11, O15085 = biological target: T2, ARHGEF11, O15085
T2 sequence (O15085 42-136, limits assumed, looked up): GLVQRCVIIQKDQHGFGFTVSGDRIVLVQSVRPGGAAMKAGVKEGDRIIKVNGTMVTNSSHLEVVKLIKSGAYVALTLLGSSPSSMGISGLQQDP

ARHGEF12, Q9NZN5-2 = biological target: ARHGEF12, Q9NZN5-2
Chain of ARHGEF12, Q9NZN5-2 (Q9NZN5 other isoform, or with tags, fused parts or gaps): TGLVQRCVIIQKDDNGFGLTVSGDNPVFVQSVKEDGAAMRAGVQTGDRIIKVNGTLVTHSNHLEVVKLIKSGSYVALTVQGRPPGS

DLG5_1, Q8TDM6 = biological target: DLG5_1, Q8TDM6
Chain of DLG5_1, Q8TDM6 (Q8TDM6 617-713): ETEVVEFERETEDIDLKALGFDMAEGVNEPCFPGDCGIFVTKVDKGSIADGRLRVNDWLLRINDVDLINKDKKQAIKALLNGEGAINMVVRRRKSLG

FRMPD3, Q5JV73 = biological target: FRMPD3, Q5JV73
Chain of FRMPD3, Q5JV73 (Q5JV73 12-100): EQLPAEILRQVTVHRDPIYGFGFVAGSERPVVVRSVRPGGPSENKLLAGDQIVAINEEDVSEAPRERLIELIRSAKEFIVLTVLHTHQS

GRID2IP_2, A4D2P6 = biological target: GRID2IP_2, A4D2P6
Chain of GRID2IP_2, A4D2P6 (A4D2P6 272-370): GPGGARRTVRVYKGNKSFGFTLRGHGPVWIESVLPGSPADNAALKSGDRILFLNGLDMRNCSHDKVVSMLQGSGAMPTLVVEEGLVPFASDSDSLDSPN

GRIP1_2, Q9Y3R0 = biological target: T3, GRIP1_2, Q9Y3R0
T3 sequence (Q9Y3R0 145-248, limits assumed, looked up): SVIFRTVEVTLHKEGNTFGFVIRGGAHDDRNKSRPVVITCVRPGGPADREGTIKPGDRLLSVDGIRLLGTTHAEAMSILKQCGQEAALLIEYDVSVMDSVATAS

HTRA1, Q92743 = biological target: HTRA1, Q92743
Chain of HTRA1, Q92743 (Q92743 360-477): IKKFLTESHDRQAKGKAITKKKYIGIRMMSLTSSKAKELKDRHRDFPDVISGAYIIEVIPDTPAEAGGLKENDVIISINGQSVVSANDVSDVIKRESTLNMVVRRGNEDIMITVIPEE

IL16_1, Q14005 = biological target: IL16_1, Q14005
Chain of IL16_1, Q14005 (Q14005 210-306): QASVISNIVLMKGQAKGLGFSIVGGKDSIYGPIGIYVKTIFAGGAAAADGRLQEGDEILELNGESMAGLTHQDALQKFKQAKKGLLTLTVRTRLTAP

IL16_3, Q14005 = biological target: IL16_3, Q14005
Chain of IL16_3, Q14005 (Q14005 1107-1207): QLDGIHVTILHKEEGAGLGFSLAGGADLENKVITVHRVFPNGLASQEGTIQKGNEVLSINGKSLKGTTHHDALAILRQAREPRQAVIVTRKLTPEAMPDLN

Inadl_3, Q8NI35 = biological target: Inadl_3, Q8NI35
Chain of Inadl_3, Q8NI35 (Q8NI35 359-469): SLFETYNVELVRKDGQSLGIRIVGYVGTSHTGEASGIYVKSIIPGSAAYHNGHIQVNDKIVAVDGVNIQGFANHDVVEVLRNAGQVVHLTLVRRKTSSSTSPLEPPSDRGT

Inadl_5, Q8NI35 = biological target: Inadl_5, Q8NI35
Chain of Inadl_5, Q8NI35 (Q8NI35 673-780): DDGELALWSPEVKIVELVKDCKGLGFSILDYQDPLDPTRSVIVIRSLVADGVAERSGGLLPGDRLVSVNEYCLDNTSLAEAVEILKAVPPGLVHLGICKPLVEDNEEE

LNX1_2, Q8TBB1 = biological target: LNX1_2, Q8TBB1
Chain of LNX1_2, Q8TBB1 (Q8TBB1 371-470): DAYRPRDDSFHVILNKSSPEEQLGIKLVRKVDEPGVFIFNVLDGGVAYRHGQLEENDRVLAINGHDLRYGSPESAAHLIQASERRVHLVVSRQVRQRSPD

MAGI2_2, Q86UL8 = biological target: MAGI2_2, Q86UL8
Chain of MAGI2_2, Q86UL8 (Q86UL8 410-522): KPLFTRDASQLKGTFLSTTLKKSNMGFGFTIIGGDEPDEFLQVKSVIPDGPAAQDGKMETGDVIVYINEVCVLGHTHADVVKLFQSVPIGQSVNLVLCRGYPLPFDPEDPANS

MAGI3_2, Q5TCQ9 = biological target: MAGI3_2, Q5TCQ9
Chain of MAGI3_2, Q5TCQ9 (Q5TCQ9 398-503): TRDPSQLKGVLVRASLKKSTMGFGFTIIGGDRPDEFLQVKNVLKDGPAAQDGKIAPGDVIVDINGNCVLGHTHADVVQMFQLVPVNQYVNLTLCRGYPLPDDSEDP

MAST1, Q9Y2H9 = biological target: MAST1, Q9Y2H9
Chain of MAST1, Q9Y2H9 (Q9Y2H9 962-1065): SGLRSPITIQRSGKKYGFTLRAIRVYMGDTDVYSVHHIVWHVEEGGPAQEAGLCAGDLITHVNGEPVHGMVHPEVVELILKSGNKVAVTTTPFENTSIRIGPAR

MPP7, Q5T2T1 = biological target: T4, MPP7, Q5T2T1
T4 sequence (Q5T2T1 134-230, limits assumed, looked up): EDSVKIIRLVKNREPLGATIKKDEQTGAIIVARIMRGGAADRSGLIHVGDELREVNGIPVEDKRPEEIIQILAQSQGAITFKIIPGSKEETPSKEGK

NHERF3_3, Q5T2W1 = biological target: T5, NHERF3_3, Q5T2W1
T5 sequence (Q5T2W1 238-333, limits assumed, looked up): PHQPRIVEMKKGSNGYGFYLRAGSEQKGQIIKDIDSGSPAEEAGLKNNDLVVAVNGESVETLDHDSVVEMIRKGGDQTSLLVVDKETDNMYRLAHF

PDLIM1, O00151 = biological target: PDLIM1, O00151
Chain of PDLIM1, O00151 (O00151 1-87): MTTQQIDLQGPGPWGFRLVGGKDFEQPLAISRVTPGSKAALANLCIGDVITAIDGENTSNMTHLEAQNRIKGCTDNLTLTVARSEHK

PDZRN3_1, Q9UPQ7 = biological target: T6, PDZRN3_1, Q9UPQ7
T6 sequence (Q9UPQ7 244-349, limits assumed, looked up): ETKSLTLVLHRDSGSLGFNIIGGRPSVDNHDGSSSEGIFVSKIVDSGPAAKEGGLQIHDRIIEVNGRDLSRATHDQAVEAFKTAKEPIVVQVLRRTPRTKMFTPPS

PTPN3, P26045 = biological target: PTPN3, P26045
Chain of PTPN3, P26045 (P26045 505-587): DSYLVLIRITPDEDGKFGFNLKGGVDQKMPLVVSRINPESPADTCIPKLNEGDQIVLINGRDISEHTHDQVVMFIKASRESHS

RADIL, Q96JH8 = biological target: T7, RADIL, Q96JH8
T7 sequence (Q96JH8 971-1071, limits assumed, looked up): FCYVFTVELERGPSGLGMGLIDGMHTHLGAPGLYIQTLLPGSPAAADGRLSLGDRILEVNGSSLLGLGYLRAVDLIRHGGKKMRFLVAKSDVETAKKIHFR

RAPGEF6, Q8TEU7 = biological target: T8, RAPGEF6, Q8TEU7
T8 sequence (Q8TEU7 525-625, limits assumed, looked up): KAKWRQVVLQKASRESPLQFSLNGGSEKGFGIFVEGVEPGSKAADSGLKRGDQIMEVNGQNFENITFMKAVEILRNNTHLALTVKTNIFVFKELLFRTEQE

RHPN1, Q8TCX5 = biological target: T9, RHPN1, Q8TCX5
T9 sequence (Q8TCX5 508-602, limits assumed, looked up): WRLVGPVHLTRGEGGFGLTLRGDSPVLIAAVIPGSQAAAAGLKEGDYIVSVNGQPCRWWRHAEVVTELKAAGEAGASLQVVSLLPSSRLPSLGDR

SNTA1, Q13424 = biological target: T10, SNTA1, Q13424
T10 sequence (Q13424 82-180, limits assumed, looked up): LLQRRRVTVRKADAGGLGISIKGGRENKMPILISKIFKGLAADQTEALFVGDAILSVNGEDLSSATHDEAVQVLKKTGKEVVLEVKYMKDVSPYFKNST

SNTG2, Q9NY99 = biological target: T11, SNTG2, Q9NY99
T11 sequence (Q9NY99 68-166, limits assumed, looked up): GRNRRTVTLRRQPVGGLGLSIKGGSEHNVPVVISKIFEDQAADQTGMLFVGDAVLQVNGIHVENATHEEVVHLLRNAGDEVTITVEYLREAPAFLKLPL

TJP1_3, Q07157 = biological target: TJP1_3, Q07157
Chain of TJP1_3, Q07157 (Q07157 416-512): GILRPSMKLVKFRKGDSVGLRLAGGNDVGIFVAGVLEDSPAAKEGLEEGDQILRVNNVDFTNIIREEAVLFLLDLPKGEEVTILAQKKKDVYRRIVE

[1] = plain residues with an end cap or a label only (N-terminal biotin on a linker: ado-ado)
[2] = plain residues with an end cap or a label only (N-terminal biotin on a linker: ttds)
[3] = plain residues with an end cap or a label only (N-terminal biotin on a linker: ahx)

Measured: pKd

B1: ACOT6, Q3I5F7 (peptide)
chain: GKKSVKHSKI
4.19: PTPN3, P26045; [1]
4.07: MAGI3_2, Q5TCQ9; [1]
below the threshold: APBA1_1, Q02410; [1] | ARHGEF11, O15085; [1] | DLG5_1, Q8TDM6; [1] | FRMPD3, Q5JV73; [1] | GRIP1_2, Q9Y3R0; [1] | HTRA1, Q92743; [1] | IL16_1, Q14005; [1] | IL16_3, Q14005; [1] | Inadl_3, Q8NI35; [1] | Inadl_5, Q8NI35; [1] | LNX1_2, Q8TBB1; [1] | MAST1, Q9Y2H9; [1] | MPP7, Q5T2T1; [1] | NHERF3_3, Q5T2W1; [1] | PDLIM1, O00151; [1] | PDZRN3_1, Q9UPQ7; [1] | RADIL, Q96JH8; [1] | RAPGEF6, Q8TEU7; [1] | RHPN1, Q8TCX5; [1] | TJP1_3, Q07157; [1]
3.52: SNTG2, Q9NY99; [1]
3.55: SNTA1, Q13424; [1]
3.83: GRID2IP_2, A4D2P6; [1]
3.96: MAGI2_2, Q86UL8; [1]
3.92: ARHGEF12, Q9NZN5-2; [1]

B2: CTNNB1, P35222 (peptide)
chain: NQLAWFDTDL
3.7: Inadl_3, Q8NI35; [2]
4.83: MAST1, Q9Y2H9; [2]
4.33: PTPN3, P26045; [2]
4.46: RHPN1, Q8TCX5; [2]
below the threshold: APBA1_1, Q02410; [2] | DLG5_1, Q8TDM6; [2] | FRMPD3, Q5JV73; [2] | GRID2IP_2, A4D2P6; [2] | GRIP1_2, Q9Y3R0; [2] | HTRA1, Q92743; [2] | IL16_1, Q14005; [2] | IL16_3, Q14005; [2] | Inadl_5, Q8NI35; [2] | LNX1_2, Q8TBB1; [2] | MAGI2_2, Q86UL8; [2] | MAGI3_2, Q5TCQ9; [2] | MPP7, Q5T2T1; [2] | NHERF3_3, Q5T2W1; [2] | PDZRN3_1, Q9UPQ7; [2] | RADIL, Q96JH8; [2] | RAPGEF6, Q8TEU7; [2] | SNTA1, Q13424; [2] | SNTG2, Q9NY99; [2] | TJP1_3, Q07157; [2]
4.16: PDLIM1, O00151; [2]
3.77: ARHGEF11, O15085; [2]
4.2: ARHGEF12, Q9NZN5-2; [2]

B3: LNX1, Q8TBB1 (peptide)
chain: TIVSWPGTFL
4.17: RHPN1, Q8TCX5; [3]
3.62: Inadl_3, Q8NI35; [3]
below the threshold: APBA1_1, Q02410; [3] | ARHGEF11, O15085; [3] | ARHGEF12, Q9NZN5-2; [3] | DLG5_1, Q8TDM6; [3] | FRMPD3, Q5JV73; [3] | GRIP1_2, Q9Y3R0; [3] | IL16_1, Q14005; [3] | IL16_3, Q14005; [3] | Inadl_5, Q8NI35; [3] | LNX1_2, Q8TBB1; [3] | MAGI2_2, Q86UL8; [3] | MAGI3_2, Q5TCQ9; [3] | MPP7, Q5T2T1; [3] | NHERF3_3, Q5T2W1; [3] | RAPGEF6, Q8TEU7; [3] | SNTA1, Q13424; [3] | SNTG2, Q9NY99; [3] | TJP1_3, Q07157; [3]
3.63: PDLIM1, O00151; [3]
3.85: PDZRN3_1, Q9UPQ7; [3]
4.52: PTPN3, P26045; [3]
4.45: RADIL, Q96JH8; [3]
4.16: GRID2IP_2, A4D2P6; [3]
4.61: HTRA1, Q92743; [3]
4.25: MAST1, Q9Y2H9; [3]
